Experimental data reported in patent US20040115667A1, “Dna-sequences, which code for an apoptosis signal transduction protein” (priority 2000, published 2004).
Entries after “also recorded” stand apart in the source; their conditions may differ. Peptide text beside a SMILES is read from it. * marks the point of attachment. Cbz = O=C(OCc1ccccc1)*; CH2F = FC*

Tests used:
[1] = system: Bcl-rambo-induced cell death (caspase-3 activity) in 293T cells; test: Effect of apoptosis inhibitors on apoptotic activity of full-length Bcl-rambo in 293T cells; type: cell-based, human
Description: The effect of different apoptosis inhibitors on the apoptotic activity of Bcl-rambo is investigated in FIG. 6. For this, 293T cells were transfected for 27 hours (shown in FIG. 6A) with 2 μg of Bcl-rambo expression plasmid and 0.5 μg of expression vectors encoding various apoptosis inhibitors, together with 0.5 μg of β-galactosidase expression vector.
(§1) 293T cells (3×10^5 cells) were sown on 60 mm culture dishes on the day before the transfection and then transiently cotransfected with 2 μg of Bcl-rambo expression plasmids and 0.2 μg of EGFP expression vector (pEGFP-C1, from Clontech) or with 0.5 μg of pCMV-β-galactosidase expression vector. The postnuclear lyzates were then analyzed with regard to the fluorescence intensity of EGFP, the galactosidase activity and the caspase-3 activity using a peptide substrate (Ac-DEVD-AMC, from Alexis). In order to be able to compare the individual measurements, the caspase-3 activity (measured as the number of times it was increased by the induction) was standardized using the fluorescence intensity of EGFP or the β-galactosidase activity.

[2] = system: caspase-3 activity in 293T cells; test: Caspase-3 activity / apoptosis in 293T cells transfected with Bcl-rambo constructs; type: cell-based, human; settings: 2 μg construct, 42 hours; for increase in caspase-3 activity (times increase in activity induced): standardized by EGFP fluorescence
Description: FIG. 5 describes the Bcl-rambo-induced apoptosis which is induced by the C-terminal domain of Bcl-rambo. For this, 293T cells were transfected with 2 μg of various Bcl-rambo constructs, namely mock transfectants, full-length Bcl-rambo (amino acids 1-485), Bcl-rambo without the C-terminal anchor domain (amino acids 1-459), the N-terminal domain of homology with Bcl-2 (amino acids 1-223), the C-terminal domain containing the BHNo region (amino acids 205-485), the C-terminal domain without the anchor region (amino acids 205-459) and, finally, a truncated N-terminal domain (amino acids 1-201). All the abovementioned constructs are depicted diagrammatically in FIG. 5 (right-hand drawing), with the BH regions (BH4 (4), BH3 (3), BH1 (1) and BH2 (2)) and also, if present, the tandem repeats and/or the anchor regions (MA) being shown diagrammatically. The transfection, which took place jointly together with 0.2 μg of an EGFP expression vector, namely pEGFP-C1, lasted for 42 hours. The graph shown in the upper left of FIG. 5 plots the caspase-3 activity (as the times increase in activity induced). The activity in the individual experimental assays was standardized by taking into account the fluorescence intensity of transfected EGFP, i.e. the cotransfection with the EGFP expression vector was used to check the transfection rate in order to ensure that it was possible to compare the results in the different experimental assays.
It follows from the results of the experiments depicted in FIG. 5 that the BHNo domain (and not, for example, the domain having homology with Bcl-2) is responsible for inducing cell death when Bcl-rambo is overexpressed. […] In the case of all the cell extracts, the strength of the expression of the individual constructs in the transfected cells was checked by Western blot analysis using anti-Flag antibody M2 (lower left-hand diagram in FIG. 5).
as §1

[3] = system: proapoptotic proteins Bax, Bak, Bik, Bid, Bim, Bad and Bcl-rambo; test: Co-immunoprecipitation of Bcl-rambo with proapoptotic proteins of the Bcl-2 family in 293T cells; type: binding; settings: anti-Flag M2 agarose immunoprecipitation, anti-EE blot, also with z-VAD-fmk
[4] = system: antiapoptotic proteins (Bcl-2, Bcl-XL, Bcl-w, A1, MCL-1, E1B-19K and BHRF1); test: Co-immunoprecipitation of Bcl-rambo with antiapoptotic proteins of the Bcl-2 family in 293T cells; type: binding; settings: HA-labeled Bcl-rambo with Flag-labeled antiapoptotic protein
[5] = biological target: T1, proapoptotic proteins Bax, Bak, Bik, Bid, Bim, Bad and Bcl-rambo (Homo sapiens, UniProt Q9BXK5); test: Co-immunoprecipitation of Bcl-rambo with proapoptotic proteins of the Bcl-2 family in 293T cells; type: binding; settings: co-immunoprecipitation
T1 construct: expressed in transfected cells; host or cells: 293T cells

COC(=O)C[C@H](NC(=O)[C@H](C)NC(=O)[C@@H](NC(=O)OCc1ccccc1)C(C)C)C(=O)CF [z-VAD-fmk, reference compound] (Cbz-Val-Ala-Asp(OMe)-CH2F)
suppression of Bcl-rambo-induced cell death by pancaspase inhibitor ([1]; not depicted in FIG. 6): completely suppressed

c-IAP2: apoptosis inhibitor of the IAP family, coexpressed
blocking of Bcl-rambo-induced cell death by coexpressed apoptosis inhibitor ([1]; 293T cells, 27 hours, 2 μg Bcl-rambo plasmid, 0.5 μg inhibitor vector, standardized by β-galactosidase): act as inhibitors; also recorded: inhibitory effect

B1: amino acids 1-223: N-terminal domain of Bcl-rambo with homology to Bcl-2 (protein, UniProt Q9BXK5 1-223, looked up, fragment)
chain: MASSSTVPLGFHYETKYVVLSYLGLLSQEKLQEQHLSSPQGVQLDIASQSLDQEILLKVKTEIEEELKSLDKEISEAFTSTGFDRHTSPVFSPANPESSMEDCLAHLGEKVSQELKEPLHKALQMLLSQPVTYQAFRECTLETTVHASGWNKILVPLVLLRQMLLELTRRGQEPLSALLQFGVTYLEDYSAEYIIQQGGWGTVFSLESEEEEYPGITAEDSND
effect on cell survival / induction of cell death on overexpression [2]: no effect on cell survival rate | protein/protein interaction with proapoptotic Bcl-2 family proteins [3]: does not interact with other proteins of the Bcl-2 family | interaction with antiapoptotic Bcl-2 family proteins [4]: does not interact with other proteins of the Bcl-2 family

B2: 1-203: truncated N-terminal domain of Bcl-rambo; printed 1-203, elsewhere 1-201 (protein, UniProt Q9BXK5 1-201, looked up, fragment)
chain: MASSSTVPLGFHYETKYVVLSYLGLLSQEKLQEQHLSSPQGVQLDIASQSLDQEILLKVKTEIEEELKSLDKEISEAFTSTGFDRHTSPVFSPANPESSMEDCLAHLGEKVSQELKEPLHKALQMLLSQPVTYQAFRECTLETTVHASGWNKILVPLVLLRQMLLELTRRGQEPLSALLQFGVTYLEDYSAEYIIQQGGWG
effect on cell survival / induction of cell death on overexpression [2]: no effect on cell survival rate

B3: 205-459 construct: C-terminal domain of Bcl-rambo without the anchor region (amino acids 205-459) (protein, UniProt Q9BXK5 205-459, looked up, fragment)
chain: SLESEEEEYPGITAEDSNDIYILPSDNSGQVSPPESPTVTTSWQSESLPVSLSASQSWHTESLPVSLGPESWQQIAMDPEEVKSLDSNGAGEKSENNSSNSDIVHVEKEEVPEGMEEAAVASVVLPARELQEALPEAPAPLLPHITATSLLGTREPDTEVITVEKSSPATSLFVELDEEEVKAATTEPTEVEEVVPALEPTETLLSEKEINAREESLVEELSPASEKKPVPPSEGKSRLSPAGEMKPMPLSEGKS
effect on cell survival / induction of cell death on overexpression [2]: no longer able to elicit cell death

B4: full-length Bcl-rambo: full-length human Bcl-rambo protein, amino acids 1-485, expressed from plasmid (protein, UniProt Q9BXK5 1-485, looked up)
chain: MASSSTVPLGFHYETKYVVLSYLGLLSQEKLQEQHLSSPQGVQLDIASQSLDQEILLKVKTEIEEELKSLDKEISEAFTSTGFDRHTSPVFSPANPESSMEDCLAHLGEKVSQELKEPLHKALQMLLSQPVTYQAFRECTLETTVHASGWNKILVPLVLLRQMLLELTRRGQEPLSALLQFGVTYLEDYSAEYIIQQGGWGTVFSLESEEEEYPGITAEDSNDIYILPSDNSGQVSPPESPTVTTSWQSESLPVSLSASQSWHTESLPVSLGPESWQQIAMDPEEVKSLDSNGAGEKSENNSSNSDIVHVEKEEVPEGMEEAAVASVVLPARELQEALPEAPAPLLPHITATSLLGTREPDTEVITVEKSSPATSLFVELDEEEVKAATTEPTEVEEVVPALEPTETLLSEKEINAREESLVEELSPASEKKPVPPSEGKSRLSPAGEMKPMPLSEGKSILLFGGAAAVAILAVAIGVALALRKK
modifications: full-length
notes: full-length human Bcl-rambo protein, amino acids 1-485, expressed from plasmid
effect on cell survival / induction of cell death on overexpression [2]: marked proapoptotic effect | increase in caspase-3 activity (times increase in activity induced) [2]: approx. 70 fold | homodimer formation [5]: Nor can any homodimers be detected | protein/protein interaction with proapoptotic Bcl-2 family proteins [3]: not possible to detect any protein/protein interaction | interaction with antiapoptotic Bcl-2 family proteins [4]: not possible to detect any interactions; also recorded: no interactions were observed

B5: C-terminal BHNo domain (amino acids 205-459): C-terminal domain with BHNo region and membrane anchor; range printed as 205-459, probably 205-485 (protein, UniProt Q9BXK5 205-485, looked up, fragment)
chain: SLESEEEEYPGITAEDSNDIYILPSDNSGQVSPPESPTVTTSWQSESLPVSLSASQSWHTESLPVSLGPESWQQIAMDPEEVKSLDSNGAGEKSENNSSNSDIVHVEKEEVPEGMEEAAVASVVLPARELQEALPEAPAPLLPHITATSLLGTREPDTEVITVEKSSPATSLFVELDEEEVKAATTEPTEVEEVVPALEPTETLLSEKEINAREESLVEELSPASEKKPVPPSEGKSRLSPAGEMKPMPLSEGKSILLFGGAAAVAILAVAIGVALALRKK
increase in caspase-3 activity (times increase in activity induced) [2]: approx. 80 fold
